Assay results from patent US10053716B2, “4-amino cinnamic acid production method using enzyme” (JAPAN SCIENCE AND TECHNOLOGY AGENCY, priority 2014, dated 2018).

Key:
[1] = PAL activity of Escherichia coli recombinant enzyme crude extract; assay type: biochemical; details: crude cell extract, BL21(DE3), 20 mM substrate
Protocol: (§1) [Measurement of Enzyme Activity of Escherichia coli Recombinant Enzyme Crude Extract]
(§2) Escherichia coli was inoculated into 5 ml of LB medium containing 100 mg/L ampicillin sodium or 100 mg/L kanamycin sulfate, and cultured overnight at 37° C. It was then inoculated into 200 ml of the same culture medium and cultured to an O.D. of 0.6, isopropyl-β-thiogalactopyranoside (IPTG) was added to a final concentration of 0.5 mM, and culturing was conducted for 12 hours at 28° C.
(§3) The cultured cells were collected and suspended in 20 mM potassium phosphate buffer (pH 7.5) and subjected to ultrasonic disruption and the supernatant was used as a crude extract for activity measurement. The enzyme activity was measured and quantified by measuring the absorbance at the absorption wavelength of the reaction product using a spectrophotometer, for a period of 5 minutes. For PAL activity, the crude extract was added to 100 mM Tris Buffer (pH 8.0) and 20 mM phenylalanine, reaction was conducted, and production of cinnamic acid was measured by the change in absorbance at a wavelength of 290 nm, while for 4APAL activity, 20 mM 4-aminophenylalanine was used as substrate and the absorbance at a wavelength of 315 nm due to 4-aminocinnamic acid was measured and quantified.

[2] = 4APAL activity of Escherichia coli recombinant enzyme crude extract; assay type: biochemical; details: crude cell extract, BL21(DE3), 20 mM substrate
Protocol: as §1, §2, §3

[3] = Km and kcat of recombinant purified enzyme for phenylalanine; assay type: biochemical; details: purified His-tag enzyme
Protocol: (§4) [Measurement of Enzyme Activity of Escherichia coli Recombinant Purified Enzyme]
(§5) Escherichia coli was inoculated into 5 ml of LB medium containing 100 mg/L ampicillin sodium or 100 mg/L kanamycin sulfate, and cultured overnight at 37° C. It was then used to inoculate 200 ml of the same culture medium and cultured to an O.D of 0.6, IPTG was added to a final concentration of 0.5 mM, and the incubation was continued for 12 hours at 28° C. The rotational speed during cultures was 120 rpm. The cultured cells were collected and suspended in 20 mM potassium phosphate buffer (pH 7.5) and subjected to ultrasonic disruption, and after centrifugal separation, the supernatant was purified using a His-Trap column and the enzyme activity was measured. The method of measuring the enzyme activity was according to the method for the crude extract described above.
(§6) Since pET28AtPAL4 and its mutants and RgPAL were produced as fusion proteins with His-tag in the Escherichia coli of Example 3, these enzymes could be easily purified using an affinity column. After culturing the producing cells, the cells were collected, disrupted and purified. The purified enzymes were used to calculate the Km values and kcat values.

[4] = Km and kcat of recombinant purified enzyme for 4-aminophenylalanine; assay type: biochemical; details: purified His-tag enzyme
Protocol: as §4, §5, §6

[5] = Resting cell reaction, production of 4-aminocinnamic acid; assay type: cell-based, Escherichia coli
Protocol: (§7) Escherichia coli was cultured at 37° C. using LB medium containing 100 mg/L ampicillin sodium or 100 mg/L kanamycin sulfate. One platinum loop of the cells was transferred from pregrown agar medium to a test tube containing 5 ml of culture medium, and shake-culture was conducted overnight at 120 rpm.
(§8) The precultured cells were transferred at 1% into 200 ml of the same medium in a baffle-equipped flask. Shake-culture was conducted at 37° C., a prescribed amount of IPTG was added at the point when the O.D. of the culture broth reached 0.3, and the culture was conducted at 28° C. for 12 hours to induce production of the target gene.
(§9) The main cultured cells were collected and rinsed once with 50 mM KPi Buffer (pH 7), and then suspended in 5 ml of a reaction mixture containing 20 mM substrate (4-aminophenylalanine, phenylalanine), for resting cell reaction. The reaction was conducted for 0 to 24 hours while shaking at 37° C. After the reaction, the supernatant was transferred to a centrifuge tube and recovered by centrifugal separation, and high-performance liquid chromatography (HPLC) was used in the following manner for quantitation of the reaction product.
HPLC (1200 infinity series: Hewlett Packard) was used for quantitation. A Purospher STAR RP-18 endcapped column was used, with a mixture of 20 mM potassium phosphate (pH 7.0) and 100% methanol as the eluent. Measurement was carried out using absorption at wavelengths of 210 nm, 254 nm and 280 nm.
The Escherichia coli BL21-pET28a-RgPAL cells were prepared by the following method. Escherichia coli BL21-pET28a-RgPAL was shake cultured overnight at 37° C., 120 rpm using medium containing 100 mg/L kanamycin sulfate in 5 ml of LB medium (1% tryptone, 0.5% yeast extract, 0.5% sodium chloride). A 2 mL portion of the obtained cell culture solution was transferred into 200 ml of the same medium in a 500 mL-volume Erlenmeyer flask, and then shake cultured at 37° C., 120 rpm. IPTG was added when the optical density of the culture reached 0.3, and shake culture was conducted at 28° C., 120 rpm for 12 hours. The obtained Escherichia coli BL21-pET28a-RgPAL cells were collected by centrifugal separation and rinsed once with 50 mM potassium phosphate (pH 7), after which they were suspended in the same buffer containing 20 mM of substrate (4-aminophenylalanine or phenylalanine), and incubated for 24 hours while shaking at 37° C. After the reaction, the produced 4-aminocinnamic acid or cinnamic acid was quantified using HPLC. Reaction was also carried out in aqueous 50 mM potassium phosphate at pH 8 or 9, using the same method as above. […] In particular, the conversion efficiency increased by 12-fold at pH 7.

[6] = Resting cell reaction, production of cinnamic acid; assay type: cell-based, Escherichia coli; details: 4-aminophenylalanine alone as substrate
Protocol: as §7, §8, §9
HPLC (1200 infinity series: Hewlett Packard) was used for quantitation. A Purospher STAR RP-18 endcapped column was used, with a mixture of 20 mM potassium phosphate (pH 7.0) and 100% methanol as the eluent. […]

B1: RgPAL: PAL derived from the yeast Rhodotorula glutinis, amino acid sequence SEQ ID NO: 2 (protein)
chain: MAPSVDSIATSVANSLSNGLAGDLRKKTSGAGSLLPTTETTQIDIVERILADAGATDQIKLDGYTLTLGDVVGAARRGRTVKVADSPQIREKIDASVEFLRTQLDNSVYGVTTGFGGSADTRTEDAISLQKALLEHQLCGVLPTSMDGFALGRGLENSLPLEVVRGAMTIRVNSLTRGHSAVRIVVLEALTNFLNHGITPIVPLRGTISASGDLSPLSYIAASITGHPDSKVHVDGQIMSAQEAIALKGLQPVVLGPKEGLGLVNGTAVSASMATLALTDAHVLSLLAQANTALTVEAMVGHAGSFHPFLHDVTRPHPTQIEVARNIRTLLEGSKYAVHHETEVKVKDDEGILRQDRYPLRCSPQWLGPLVSDMIHAHSVLSLEAGQSTTDNPLIDLENKMTHHGGAFMASSVGNTMEKTRLAVALMGKVSFTQLTEMLNAGMNRALPSCLAAEDPSLSYHCKGLDIAAAAYTSELGHLANPVSTHVQPAEMGNQAINSLALISARRTAEANDVLSLLLATHLYCVLQAVDLRAMEFEHTKEFEPMVTDLLKQHFGALATADVEDKVRKSIYKRLQQNNSYDLEQRWHDTFSVATGAVVEALAGNEVSLASLNAWKVACAEKAIALTRTVRDSFWAAPSSASPALKYLSPRTRILYSFVREDVGVKARRGDVYLGKQEVTIGTNVSRIYEAIKDGRIAPVLVKMMA
modifications: RgPAL cDNA
[1]
  PAL activity compared to AtPAL4: 8.5 fold
[2]
  4APAL activity compared to AtPAL4: 8 fold
[2]; listed as enzyme of the invention
  4APAL activity compared to AtPAL4: approximately 8 fold
[3]
  Kcat value, Phenylalanine: 3.4 s⁻¹
  Km: 0.098 mM
[4]
  Kcat value, 4-Aminophenylalanine: 0.44 s⁻¹
  Km: 22 mM
[5]
  4-aminocinnamic acid production reached: about 1 g/L
[5]; 4-aminophenylalanine alone as substrate
  4-aminocinnamic acid amount compared to AtPAL4: 12 times
[5]; pH 7
  conversion efficiency increase compared to AtPAL4: 12 fold
[5]; resting cells reaction
  4-aminocinnamic acid produced, maximum: 825 mg/L
[6]
  cinnamic acid produced compared to AtPAL4: 36%
